Experimental data as given in the nanobody polyreactivity screen of Harvey et al. (2022).

Test: yeast display, Sf9 membrane polyspecificity reagent, FACS + sequencing; frameworks hold sequencing errors
Outline: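 Nanobodies came from a synthetic yeast display library in Saccharomyces cerevisiae BJ5465, induced with galactose for 36–48 hours and stained for 1 hour at 4 °C with 10% biotinylated, detergent-solubilized Sf9 membrane reagent. Cells were enriched on streptavidin microbeads and then FACS-sorted, with low and high (top ~1%) gates set on anti-HA fluorescence for expression and streptavidin fluorescence for reagent binding. Each polyreactivity label reflects the gate a clone came from. Genes were amplified by colony PCR, sequenced by MiSeq 2 × 250 and filtered by CDR length.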

Row | Sequence | polyreactivity (PSR sort gate)
1 | QVQLVESGGGLVQAGGSLRLSCAASGFILAYYAMGWYRQSPGKERELVAAISIGSSTDYADSVKGRFTISRDNAKNTVYLQMNSLKPEDTAVYYCAARDYYYEYDYWGQGTQVTVSS | low polyreactivity
2 | QVQLVESGGGLVQAGGSLRLSCAASGFILDFNAMGWYRQAPGKERELVAAISISGVSTYYADSVKGRFTISRDNAKNTVYLQMNSLKPEDTAVYYCAAAQDAAVYWRPGGYDYWGQGTQVTVSS | low polyreactivity
3 | QVQLVESGGGLVQAGGSLRLSCAASGFILDRYAMGWYRQAPGKERELVASITSGGSTNYADSVKGRFTISRDNAKNTVYLQMNSLKPEDTAVYYCAAYPWRYWNHEYNYWGQGTQVTVSS | high polyreactivity
4 | QVQLVESGGGLVQAGGSLRLSCAASGFILDYNAMGWSRQAPGKERELVASIDSGGGTNYADSVKGRFTISRDNAKNTVYLQMNSLKPEDTAVYYCAADVTLWYDYGGQGTQVTVSS | low polyreactivity
5 | QVQLVESGGGLVQAGGSLRLSCAASGFILFPNAMGWYRQAPGKERELVAAITSGGRTNYADSVKGRFTISRDNAKNTVYLQMTSLKPEDTAVYYCAYVGYWWGYDYWGQGTQVTVSS | low polyreactivity
6 | QVQLVESGGGLVQAGGSLRLSCAASGFILGGYAMGWYRQAPGKERELVAAISWSSGSTYYADSVKGRFTISRDNAKNTVYLQMNSLIPEDTAVYYCAAVGAYDYWGQGTQVTVSS | low polyreactivity
7 | QVQLVESGGGLVQAGGSLRLSCAASGFILGTNAMGWYRQAPGKERELVAAISSGGGSTYYADSVMGRFTISRDNAKNTVYLQMNSQKPEDTAVYYCAADNVWGYPEDDYWGQGTQVTVSS | low polyreactivity
8 | QVQLVESGGGLVQAGGSLRLSCAASGFILIQYAMGWYRQAPGKERELVAAITWSDTSTNYADSVKGRFTISRDNAKNTVYLQMNSLKPEDTAVYYCNADLYGAQDRRLDYYAEGYWGQGTQVTVSS | low polyreactivity
9 | QVQLVESGGGLVQAGGSLRLSCAASGFILLDNAMGWYRQAPGKEREFVASINISGDRTFYADSVKGRFTISRDNAKNTVYLQMNSLKPEDTAVYYCAKEPGWGRRSTTAYDYWGQGTQVTVSS | low polyreactivity
10 | QVQLVESGGGLVQAGGSLRLSCAASGFILPTYAMGWYRQAPGKERELVAAITRSGGSTYYADSVKGRFTISRDNAKNTVYLQMNSLKPEDTAVYYCAAQRLSASRPYGYWGQGTQVTVSS | high polyreactivity
11 | QVQLVESGGGLVQAGGSLRLSCAASGFILPYYTMGWYRQAPGKERELVAAITYSGASTFYADSVKGRFTISRDNAKNTVYLQMNSLKPEDTAVYYCAKEWSGWYESPLDDGDYDYWGQGTQVTVSS | low polyreactivity
12 | QVQLVESGGGLVQAGGSLRLSCAASGFILQRYAMGWYRKAPGKERELVAAITSSGGRTYYADSVKGRFTISRDNANNTVYLQMNSLKPEDTAVYYCNTVLVYYRMIKFEYWGQGTQVTVSS | high polyreactivity
13 | QVQLVESGGGLVQAGGSLRLSCAASGFILQYNAMGWYRQAPGKEREFVATITGSGGSTYYADSVKGRFTISRDNAKNTVYIQMYSLKPEDTAFYYCNAETYIDLSGKFPVDYDYWGQGTQVTVSS | low polyreactivity
14 | QVQLVESGGGLVQAGGSLRLSCAASGFILRGYDMGWYRQATGKERELVATITTGGSTYYADSVKGRFTISRDNAKNTVYLQMNSLKPEDTAVYYCAGRRRGSVGVGYANPYNYWGQGTQVTVSS | high polyreactivity
15 | QVQLVESGGGLVQAGGSLRLSCAASGFILRYYAMGWYRQAPGKERELVAAISSGGGTYYADSVKGRFTISRDNAKNTVYLQMNSLKPEDTAVYYCAAVYWGLWHWLYTDDDGDYWGQGTQVTVSS | high polyreactivity
16 | QVQLVESGGGLVQAGGSLRLSCAASGFILRYYVMGWYRQAPGKERELVAAISSSGGRTYYADSVKGRFTISRDNAKNTVYLQMNSLKPEDTGVYYCATSTYAYRRKSYFYTRPRFGYWGQGYQVTVSS | high polyreactivity
17 | QVQLVESGGGLVQAGGSLRLSCAASGFILSPNTMGWYRQAPGKERALVAAISSDVSTYADSVKGRFTISRDNAKNTVYLQMNSLKPEDTAVYYCNADAFGYASYEYWGQGTQVTVSS | low polyreactivity
18 | QVQLVESGGGLVQAGGSLRLSCAASGFILVFYARGWYRPAPGKERELVAAIDWSGTITYYADSVKGRFTISRDNAKNTVYLQMNSLKPEDTAVYYCAADGEPFYDFYYWGQGTQVTVSS | high polyreactivity
19 | QVQLVESGGGLVQAGGSLRLSCAASGFILVGYAMGWYRKAPGKERELVAAISSGDSTNYADSVKGRFTISRDNAKNSVYLQMNSLKPEDTAVYYCAARFIFWVYDYDYWGQGTQVTLSS | low polyreactivity
20 | QVQLVESGGGLVQAGGSLRLSCAASGFILYFNAMGWYRQAPGKDRELVAVISCTGVRTNYADSVKGRFTISRDNAKNTVYLQMNSLKPEDTAVYYCAAGYYSYRPRDYWGQGTQVTVSS | low polyreactivity

Row | Sequence | polyreactivity (PSR sort gate)
21 | QVQLVESGGGLVQAGGSLRLSCAASGFILYGNAMGWYRQAPGKERELVAAISRRGGSTYYADSVKGRFTISRDNAKNTVYLQMNSLKPEDTALYYCAKDGPGGGTRIYDYWGQGTQVTVSS | high polyreactivity
22 | QVQLVESGGGLVQAGGSLRLSCAASGFILYYYALGWYRQAPGKEWEIVAAISRNGGRTYYADSVKGRFTISRDNAKNTVYLQMISLKPEDTAVDYCNKGVSRTLSSAYEYWGQGTQVTVSS | high polyreactivity
23 | QVQLVESGGGLVQAGGSLRLSCAASGFIQDYYAMGWYRHAPGKERELDAAISSGGTDTYYADSVKGRFTVSRDTAKNTVYLQMNSLKPEDTAVYYFAADSYWSAYDYWGQGTQVTVSS | low polyreactivity
24 | QVQLVESGGGLVQAGGSLRLSCAASGFIRGYYDMGWYRQAPGKERELVAAISSGGRTYYADSVKGRFTISRDNAKNTVYLQMNSLKPEDTAVYYFNAYAPRRRFDYWGQGTQVTVSS | high polyreactivity
25 | QVQLVESGGGLVQAGGSLRLSCAASGFISDDYAMGWYRQAPGKERELVAAISDSGVDTYYADSVKGRFTISRDNAKNTVYLQMNSLKPEDTAVYYCNKRYVIRRRGYDYWGQGTQVTVSS | low polyreactivity
26 | QVQLVESGGGLVQAGGSLRLSCAASGFISGSNVMGWYRQAPGKERELVAAINWSGDNTYYADSVKGRFTISRDNAKNTVYLQMNSLKPEDTAVYYCNADVYSYATPEMDYWGQGTQVTVSS | low polyreactivity
27 | QVQLVESGGGLVQAGGSLRLSCAASGFISKYYAMVWYRQAPGKERELVAAITRSGTSTYYADSVKGRFTISRDNAKNTVYLQMNSLTPEDTAVYYCAAVSGGRTPRYYYWGQGTQVTVSS | high polyreactivity
28 | QVQLVESGGGLVQAGGSLRLSCAASGFISRTNAMGWSRQEPGKERELVAGINSGGNTYYADSVKGRFTISRDNAKNTVYLQMNSLKPEDTADYYCAALWSLRRSRPRFDYWGQGTQVTVSS | high polyreactivity
29 | QVQLVESGGGLVQAGGSLRLSCAASGFISSENAMGWYRQAPGKERELVAAISSGGSTNYADSVKGRFTISRDNAKNTVYLQMNSRKPEDTAVYYCAATLPGWYNEDDSWGQGTQVTVSS | low polyreactivity
30 | QVQLVESGGGLVQAGGSLRLSCAASGFISSENAMGWYRQAPGKERELVAATSSGGSTNYADSVKGRFTISRDNAKNTVYLQMNSLKPEDTAVYYCAALFPKNLQKVGRYDYWGQGTQVTVSS | low polyreactivity
31 | QVQLVESGGGLVQAGGSLRLSCAASGFISTINVMGCYRQAPGKERELVAAITYIDGSTFYADSVKGRFTISRDNAKNTVYFQMNSLKPEDTAVYYCASDLYLWGAVFLYVRSTGLDYWGQGTQVTVSS | low polyreactivity
32 | QVQLVESGGGLVQAGGSLRLSCAASGFISTYYAMGWYRQAPGKERELVAAISWNGGSTYYADSVKGRFTISRDNAKNTVYLQMNSLKPEDTADYYCAAYLGKWRQFYSSDYDYWGQGTQVTVSS | low polyreactivity
33 | QVQLVESGGGLVQAGGSLRLSCAASGFISVSNAMGWYRQAPGKERELVAAIRGSGGSTYYADSVKGRFTISRDNAKNTVYLQMNSLKPEDTAVYYCAATAYPRGSPPYNYWGQGTQVTVSS | high polyreactivity
34 | QVQLVESGGGLVQAGGSLRLSCAASGFIVRYNAMGWYRQAPGKERELVAVITDSSDSTYYADSVKGRFTISRDNAKNTVYLQMNSLKPVDTAVYYCDTDYGYAGDYWGQGSQVTVSS | low polyreactivity
35 | QVQLVESGGGLVQAGGSLRLSCAASGFIYARYAMGWYRQAPGKERELVAGISGGGGRTYYADSVKGRFTISRDNAKNTVYLQMNSLKPEDTAVYYCAATPQSRDRRFNYWGQGTQVTVSS | high polyreactivity
36 | QVQLVESGGGLVQAGGSLRLSCAASGFIYDYAMGWYRQAPGKQREFVARINWSGGSTYYADSVKGRFTISRDNAKNTVYLQMNSLKPEDTAVYYCATSGWAWRTSNPYEYWGQGTQVTVSS | low polyreactivity
37 | QVQLVESGGGLVQAGGSLRLSCAASGFIYGLYAMGWYRQAPGKERELVASISRRGGSTYSADSVKGRVTISRDNAKNTVYLQMNSLKPEDTAVYYCAVDIVSIRGYTYGYWGQGTQVTVSS | high polyreactivity
38 | QVQLVESGGGLVQAGGSLRLSCAASGFIYHGYTMGWYSQAPGKERDLVAAITTSGTSTYYADSVKGRFTISRDNAKNTVYLQMNSLKPEDTAVYYCYDYVPGGYSRPYYYRFDHWGQGTQVTVSS | high polyreactivity
39 | QVQLVESGGGLVQAGGSLRLSCAASGFIYKINAMGWYRQAPGKERELVARITSGGRTNYADSVKGRFTISRDNAKNTVYLQMDSLKPEDTAVYYCAARYLAYGPTGYLYGYNYWGQGTQVTVSS | high polyreactivity
40 | QVQLVESGGGLVQAGGSLRLSCAASGFIYRVYAIGWYRQAPGKERELVAAITGNGVSTYYADSVKVRFTISRDNAKNTVYLQMNSLKPEDTAVYYCATYGRRWYSSRRLDYWGQGTQVTVSS | low polyreactivity
